From publication PMC6047364, “A Novel PLP-Dependent Alanine/Serine Racemase From the Hyperthermophilic Archaeon Pyrococcus horikoshii OT-3” (Frontiers in Microbiology, 2018)

Legend:
[1] = target: T1, PH0782; Ala/Ser racemase (ASR) (Pyrococcus horikoshii, UniProt O58478); test: apo-enzyme reactivation, racemase activity; format: biochemical; conditions: apo-enzyme prepared at 80°C for 18 h in assay mixture with L-Ala; covalent (Schiff base, K291 suggested)
T1 construct: full-length, pET11a (NdeI/BglII), no tag described, E. coli BL21 (DE3), purified; hexamer about 300 kDa; fold type I PLP enzyme

[2] = target: T2, PH1501 (Pyrococcus horikoshii, UniProt O59170); test: UPLC detection of D-amino acid; format: biochemical; conditions: partially purified (heat-treated) enzyme; 100 mM HEPES pH 7.0, 10 mM L-amino acid, 0.04 mM PLP, 80°C, 60 min; slight peak
T2 construct: full-length, pET11a (NdeI/BamHI), no tag described, E. coli BL21 (DE3), partially purified by heat treatment at 90°C; about 50 kDa on SDS-PAGE
T2 sequence (O59170 1-438): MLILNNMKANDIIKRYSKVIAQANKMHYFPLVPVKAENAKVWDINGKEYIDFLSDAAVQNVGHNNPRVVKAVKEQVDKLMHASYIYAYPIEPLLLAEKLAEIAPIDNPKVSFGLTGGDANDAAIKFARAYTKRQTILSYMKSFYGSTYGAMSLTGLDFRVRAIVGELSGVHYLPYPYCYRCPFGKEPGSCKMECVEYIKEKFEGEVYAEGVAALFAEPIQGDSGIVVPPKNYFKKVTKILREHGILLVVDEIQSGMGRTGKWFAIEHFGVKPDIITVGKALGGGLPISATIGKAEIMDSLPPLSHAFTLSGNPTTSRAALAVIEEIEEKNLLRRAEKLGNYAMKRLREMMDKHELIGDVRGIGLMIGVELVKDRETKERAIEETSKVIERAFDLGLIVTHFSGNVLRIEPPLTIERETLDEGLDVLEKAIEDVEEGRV

[3] = substrate: C[C@@H](N)C(=O)O; test: purified protein; conditions: 100 mM HEPES pH 7.0, 0.04 mM PLP, 80°C, racemization to L-Ala, apparent
[4] = substrate: C[C@H](N)C(=O)O; test: purified protein; conditions: 100 mM HEPES pH 7.0, 0.04 mM PLP, 80°C, racemization to D-Ala, apparent
[5] = substrate: N[C@@H](CO)C(=O)O; test: purified protein; conditions: 100 mM HEPES pH 7.0, 0.04 mM PLP, 80°C, racemization to D-Ser, apparent
[6] = substrate: N[C@H](CO)C(=O)O; test: purified protein; conditions: 100 mM HEPES pH 7.0, 0.04 mM PLP, 80°C, racemization to L-Ser, apparent
[7] = target: the molecule itself; test: SEC; gel filtration on HiLoad 26/60 Superdex 200 with molecular mass standards (thyroglobulin, gamma-globulin, ovalbumin, myoglobin); native mass about 300 kDa against a subunit of 50.5 kDa (calculated)

Cc1ncc(COP(=O)(O)O)c(C=O)c1O [pyridoxal 5′-phosphate]
apo-enzyme reactivation, racemase activity [1]: apo-enzyme exhibited no activity in the absence of PLP and recovered its activity by addition

CSCC[C@H](N)C(=O)O [Met]
UPLC detection of D-amino acid [2]: Slight peaks for the D-forms of Met, Phe, and Leu were detected

N[C@@H](Cc1ccccc1)C(=O)O [Phe]
UPLC detection of D-amino acid [2]: Slight peaks for the D-forms of Met, Phe, and Leu were detected

B1: PH0782; Ala/Ser racemase (ASR) (Pyrococcus horikoshii OT3) (protein)
chain: MEYPKIVVKPPGPRAKELIEREKKVLSTGIGVKLFPLVPKRGFGPFIEDVDGNVFIDFLAGAAAASTGYAHPKLVKAVKEQVELIQHSMIGYTHSERAIRVAEKLVEISPIENSKVIFGLSGSDAVDMAIKVSKFSTRRPWILAFIGAYHGQTLGATSVASFQVSQKRGYSPLMPNVFWIPYPNPFRNIWGINGYEEPDELINRVLDYLEYYVFSHVVPPDEVAALFAEPIQGDAGIVVPPENFFKELKKLLEEYGILLVMDEVQTGIGRTGKWFASEWFNVKPDMIIFGKGVASGMGLSGVIGRKEIMDITSGSALLTPAANPVISAAAEATLEIIEEENLLKNALEVGEFIMGRLKEIKERFEIIGDVRGKGLMIGVEIVKENGRPDPEMTGKICWRAFELGLILPSYGMFGNVIRITPPLVLTKEVAEKALEIIERAIKDTLTGKVERKVVTWH
Km [3]: 5.5 ± 0.59 mM
Vmax [3]: 49.5 µmol/min/mg
kcat/Km [3]: 7580 M⁻¹ s⁻¹
Km [4]: 3.3 ± 0.22 mM
Vmax [4]: 28.2 µmol/min/mg
kcat/Km [4]: 7190 M⁻¹ s⁻¹
Km [5]: 4.5 ± 0.32 mM
Vmax [5]: 31.4 µmol/min/mg
kcat/Km [5]: 5870 M⁻¹ s⁻¹
Km [6]: 5.9 ± 0.40 mM
Vmax [6]: 41.2 µmol/min/mg
kcat/Km [6]: 5880 M⁻¹ s⁻¹

B2: Ala/Ser racemase (ASR), the protein encoded by PH0782, from Pyrococcus horikoshii OT-3 (enzyme, UniProt O58478 1-474, looked up)
chain: MPFLPFSYYPFSLEVILMEYPKIVVKPPGPRAKELIEREKKVLSTGIGVKLFPLVPKRGFGPFIEDVDGNVFIDFLAGAAAASTGYAHPKLVKAVKEQVELIQHSMIGYTHSERAIRVAEKLVEISPIENSKVIFGLSGSDAVDMAIKVSKFSTRRPWILAFIGAYHGQTLGATSVASFQVSQKRGYSPLMPNVFWIPYPNPFRNIWGINGYEEPDELINRVLDYLEYYVFSHVVPPDEVAALFAEPIQGDAGIVVPPENFFKELKKLLEEYGILLVMDEVQTGIGRTGKWFASEWFNVKPDMIIFGKGVASGMGLSGVIGRKEIMDITSGSALLTPAANPVISAAAEATLEIIEEENLLKNALEVGEFIMGRLKEIKERFEIIGDVRGKGLMIGVEIVKENGRPDPEMTGKICWRAFELGLILPSYGMFGNVIRITPPLVLTKEVAEKALEIIERAIKDTLTGKVERKVVTWH
notes: Ala/Ser racemase encoded by ORF PH0782 of Pyrococcus horikoshii OT-3 (annotated as a putative GABA aminotransferase); amplified from genomic DNA with primers from the initiation codon to the termination codon; calculated subunit mass 50.5 kDa; PLP-dependent enzyme; also called BAR homolog; source: E. coli BL21 (DE3), pET11a/PH0782, purified (heat treatment, butyl-Toyopearl, DEAE-cellurofine)
stoichiometry N [7]: 6
